Assay results: publication PMC4466390, “Canonical and Noncanonical Sites Determine NPT2A Binding Selectivity to NHERF1 PDZ1” (PLoS ONE, 2015)
Residue numbers refer to the chain shown, from its start. In names and notes the source's numbering stands. Where no end group is shown, it is not given here.

T1: NHERF1 PDZ1 (1–140) (human, UniProt O14745 1-140)
T1 construct: Na+/H+ Exchanger Regulatory Factor-1 (NHERF1, EBP50), human, PDZ1 construct, residues 1-140; Plasmid pET16-N1P1 provided by D. F. Mierke; also called WT PDZ1 (1–140); pET16-N1P1; source: E. coli BL21 (DE3), purified (Ni-NTA-agarose)
T1 sequence (looked up): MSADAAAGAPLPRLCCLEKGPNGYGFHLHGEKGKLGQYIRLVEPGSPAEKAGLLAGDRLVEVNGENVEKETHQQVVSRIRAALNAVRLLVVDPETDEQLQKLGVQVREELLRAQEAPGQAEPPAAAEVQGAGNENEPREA

T2: NHERF1 PDZ1 (11–120) (human, UniProt O14745 11-120)
T2 construct: Na+/H+ Exchanger Regulatory Factor-1 (NHERF1, EBP50), human, PDZ1 construct, residues 11-120; also called WT PDZ1 (11–120); source: E. coli BL21 (DE3), purified (Ni-NTA-agarose)
T2 sequence (looked up): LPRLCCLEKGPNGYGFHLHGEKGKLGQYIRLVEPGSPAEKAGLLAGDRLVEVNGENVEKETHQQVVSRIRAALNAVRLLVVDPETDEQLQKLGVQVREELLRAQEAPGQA

T3: NHERF1 PDZ1 H27N (1–120) (human, UniProt O14745 1-120, H27N)
T3 construct: the methods describe the mutants in PDZ1 (11-120), so 1-120 may be a misprint of 11-120; also called His27Asn; source: E. coli BL21 (DE3), purified (Ni-NTA-agarose)
T3 sequence (looked up): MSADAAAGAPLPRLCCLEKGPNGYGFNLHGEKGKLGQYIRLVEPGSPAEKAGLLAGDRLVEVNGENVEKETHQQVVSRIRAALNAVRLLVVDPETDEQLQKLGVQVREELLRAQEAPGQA

T4: NHERF1 PDZ1 (1–120) (human, UniProt O14745 1-120)
T4 construct: the methods describe PDZ1 (11-120) and PDZ1 (1-140) but no 1-120 construct, so 1-120 may be a misprint of 11-120; Host and purification are the general statement of the methods; also called WT PDZ1; source: E. coli BL21 (DE3), purified (Ni-NTA-agarose)
T4 sequence (looked up): T3 sequence (looked up) with N27H

T5: NHERF1 PDZ1 H27N/E43D (1–120) (human, UniProt O14745 1-120, H27N | E43D)
T5 construct: The double mutant's plasmid is not described in the methods; also called His27Asn/Glu43Asp PDZ1; source: E. coli BL21 (DE3), purified (Ni-NTA-agarose)
T5 sequence (looked up): T3 sequence (looked up) with E43D

T6: NHERF1 PDZ1 E43D (1–120) (human, UniProt O14745 1-120, E43D)
T6 construct: the methods describe the mutants in PDZ1 (11-120), so 1-120 may be a misprint of 11-120; also called Glu43Asp; source: E. coli BL21 (DE3), purified (Ni-NTA-agarose)
T6 sequence (looked up): T3 sequence (looked up) with N27H, E43D

B1: rhodamine-labeled 22-residue carboxy-terminal NPT2A peptide (peptide)
peptide: {5(6)‑carboxytetramethylrhodamine}-ELPPATPSPRLALPAHHNATRL
notes: type II sodium-dependent phosphate co-transporter (NPT2A, SLC34A1), 22-residue carboxy-terminal fragment; also called labeled NPT2A peptide; source: synthetic peptide (solid phase, Fmoc; HPLC purified)
B2: NHERF1 PDZ2 D183E (domain or fragment, human, UniProt O14745 133-300, looked up)
chain: NENEPREADKSHPEQRELRPRLCTMKKGPSGYGFNLHSDKSKPGQFIRSVEPDSPAEASGLRAQDRIVEVNGVCMEGKQHGDVVSAIRAGGDETKLLVVDRETDEFFKKCRVIPSQEHLNGPLPVPFTNGEIQKENSREALAEAALESPRPALVRSASSDTSEELNSQ
notes: Na+/H+ Exchanger Regulatory Factor-1 (NHERF1, EBP50), human, PDZ2 construct, residues 133-300 (mutation introduced into pET16-N1P2), Asp183Glu; also called Asp183Glu PDZ2; single PDZ2 mutant; source: E. coli BL21 (DE3), purified (Ni-NTA-agarose)
B3: NHERF1 PDZ2 N167H/D183E (domain or fragment, human, UniProt O14745 133-300, looked up)
chain: B2 chain with N35H
notes: Na+/H+ Exchanger Regulatory Factor-1 (NHERF1, EBP50), human, PDZ2 construct, residues 133-300 (mutations introduced into pET16-N1P2), Asn167His and Asp183Glu; also called Asn167His/Asp183Glu PDZ2; double PDZ2 mutant; source: E. coli BL21 (DE3), purified (Ni-NTA-agarose)
B4: NPT2A peptide (ligand titrated in ITC) (peptide)
peptide: ELPPATPSPRLALPAHHNATRL
notes: type II sodium-dependent phosphate co-transporter (NPT2A, SLC34A1), 22-residue carboxy-terminal fragment; Kept apart from m1 for that reason; also called ligand NPT2A; source: synthetic peptide

Columns and labels:
Conditions in all cases: both partners purified
NHERF1 PDZ1 (1–140) [1] = target: T1, NHERF1 PDZ1 (1–140); assay: fluorescence polarisation; as a1 but at pH 5.5; 0.5 uM labeled NPT2A peptide, WT PDZ1 (1–140)
NHERF1 PDZ1 (1–140) [2] = target: T1, NHERF1 PDZ1 (1–140); assay: fluorescence polarisation; solution phase direct binding, PDZ construct varied against 0.5 uM or 1 uM rhodamine-labeled NPT2A peptide; FP buffer (25 mM NaH2PO4, 10 mM NaCl, pH 7.4, 1 mM DTT, 0.1 mg/ml bovine IgG, 0.5 mM Thesit); 25°C; anisotropy fitted to a 1:1 complex
NHERF1 PDZ1 (11–120) = target: T2, NHERF1 PDZ1 (11–120); assay: as above
NHERF1 PDZ1 (1–140) [3] = target: T1, NHERF1 PDZ1 (1–140); assay: fluorescence polarisation; as a1 but at pH 6.0; 0.5 uM labeled NPT2A peptide, WT PDZ1 (1–140)
[4] = target: B1; assay: fluorescence polarisation; solution phase direct binding, PDZ construct varied against 0.5 uM or 1 uM rhodamine-labeled NPT2A peptide; FP buffer (25 mM NaH2PO4, 10 mM NaCl, pH 7.4, 1 mM DTT, 0.1 mg/ml bovine IgG, 0.5 mM Thesit); 25°C; anisotropy fitted to a 1:1 complex
NHERF1 PDZ1 H27N (1–120) = target: T3, NHERF1 PDZ1 H27N (1–120); assay: ITC; 25°C; 10 mM Hepes (pH 7.5), 10 mM NaCl, 0.5 mM EDTA, 0.5 mM beta-mercaptoethanol; 25 uM PDZ protein in the cell, NPT2A (200–250 uM) titrated in 19 injections of 2 ul
NHERF1 PDZ1 (1–120) = target: T4, NHERF1 PDZ1 (1–120); assay: as above
[5] = target: T5, NHERF1 PDZ1 H27N/E43D (1–120); assay: as above
NHERF1 PDZ1 E43D (1–120) = target: T6, NHERF1 PDZ1 E43D (1–120); assay: as above

**Q.** Which Kd (NHERF1 PDZ1 (1–140) [1]) does the source give for B1 here?
**A.** The Kd was 16.1 ± 3.3 µM.

**Q.** What about the Kd (NHERF1 PDZ1 (1–140) [2]) of the same binder?
**A.** Its Kd is 1.7 ± 0.2 µM.

**Q.** What about the Kd (NHERF1 PDZ1 (11–120)) of the same binder?
**A.** The Kd was 5.5 ± 0.6 µM.

**Q.** What about the Kd (NHERF1 PDZ1 (1–140) [3]) of the same binder?
**A.** Its Kd is 8 ± 1.8 µM.

**Q.** For B2, which EC50 [4] is on record?
**A.** Its EC50 is 20 ± 10 µM.

**Q.** B3 was tested. Which EC50 [4] did it give?
**A.** The EC50 was 11.7 ± 2 µM.

**Q.** For B4, which Kd (NHERF1 PDZ1 H27N (1–120)) is on record?
**A.** Its Kd is 5.3 ± 0.5 µM.

**Q.** What about the dH (NHERF1 PDZ1 H27N (1–120)) of the same binder?
**A.** The dH was -7.5 ± 0.7 kcal/mol.

**Q.** What about the “stoichiometry N” value (NHERF1 PDZ1 H27N (1–120)) of the same binder?
**A.** Its value is 0.61.

**Q.** And the Kd (NHERF1 PDZ1 (1–120))?
**A.** Its Kd is 3.1 ± 0.3 µM.

**Q.** And the dH (NHERF1 PDZ1 (1–120))?
**A.** The dH was -8.2 ± 0.8 kcal/mol.

**Q.** What about the “stoichiometry N” value (NHERF1 PDZ1 (1–120)) of the same binder?
**A.** The value was 0.92.

**Q.** And the Kd [5]?
**A.** The Kd was 17.9 ± 0.9 µM.

**Q.** What about the dH [5] of the same binder?
**A.** The dH was -5.8 ± 0.6 kcal/mol.

**Q.** And the “stoichiometry N” value [5]?
**A.** Its value is 0.6.

**Q.** What about the Kd (NHERF1 PDZ1 E43D (1–120)) of the same binder?
**A.** The Kd was 10.4 ± 0.8 µM.

**Q.** And the dH (NHERF1 PDZ1 E43D (1–120))?
**A.** The dH was -3 ± 0.3 kcal/mol.

**Q.** And the “stoichiometry N” value (NHERF1 PDZ1 E43D (1–120))?
**A.** Its value is 0.6.
